Substitutions are numbered along the chain they refer to.

As a reminder, the stoichiometry N is a count of units in the complex or per binding partner.

Data set [1] deals with the molecule itself. Nature of the data set: SEC; ENrich SEC 650 column, 50 mM Tris-HCl pH 8, 200 mM NaCl, 5 mM beta-mercaptoethanol, 0.4 mL/min, 4 °C; MAB_4384 at 3.9 mg/mL; apparent mass from a calibration curve (42.6 kDa against 24.7 kDa theoretical). (In general: Size exclusion chromatography separates by hydrodynamic size, large species first.)
Data set [2] addresses MAB_4384 (TetR regulator) (Mycobacterium abscessus subsp. …, UniProt B1MJU8 1-221). The experiment in a line: competition; excess non-related labeled probe; shift of Probe 1 maintained; EMSA: 280 nM fluorescein probe, 1X TAE, 1 h, room temperature, 6% native PAGE in 1X TAE; SEC: 50 mM Tris-HCl pH 8, 200 mM NaCl, 5 mM beta-mercaptoethanol, 4 C. Particulars: protein: recombinant; tags: Trx-His6 tag removed by TEV; residual Gly at N-terminus; chain copies: 4; label: 5' fluorescein; blunt. On the technique in general: A gel shift assay detects complexes by their altered migration in electrophoresis.

Data set [3] deals with T1, MAB_4384 (TetR regulator) (Mycobacterium abscessus subsp. …, UniProt B1MJU8 1-221). The experiment in a line: EMSA; 280 nM probe; EMSA: 280 nM fluorescein probe, 1X TAE, 1 h, room temperature, 6% native PAGE in 1X TAE; SEC: 50 mM Tris-HCl pH 8, 200 mM NaCl, 5 mM beta-mercaptoethanol, 4 C. Particulars: protein: recombinant; tags: Trx-His6 tag removed by TEV; residual Gly at N-terminus; chain copies: 4; label: 5' fluorescein; blunt.

The target of a further data set is T2, MAB_4384 (D14N/F57L) (Mycobacterium abscessus subsp. …, UniProt B1MJU8 1-221, D14N;F57L).
T2 sequence: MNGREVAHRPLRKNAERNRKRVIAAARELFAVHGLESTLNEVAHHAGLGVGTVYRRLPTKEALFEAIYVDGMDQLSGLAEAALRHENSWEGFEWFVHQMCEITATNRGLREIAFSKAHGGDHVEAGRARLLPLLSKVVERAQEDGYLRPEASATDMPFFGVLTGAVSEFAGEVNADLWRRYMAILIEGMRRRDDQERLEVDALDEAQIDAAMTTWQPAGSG
The experiment in a line: EMSA; fully abrogated; EMSA: 280 nM fluorescein probe, 1X TAE, 1 h, room temperature, 6% native PAGE in 1X TAE; SEC: 50 mM Tris-HCl pH 8, 200 mM NaCl, 5 mM beta-mercaptoethanol, 4 C. Particulars: protein: recombinant; tags: Trx-His6 tag removed by TEV; residual Gly at N-terminus; chain copies: 2; label: 5' fluorescein; blunt.

Data set [4] deals with T1, MAB_4384 (TetR regulator). Nature of the data set: competition; cold probe vs 280 nM labeled Probe 1; dose-dependent decrease; EMSA: 280 nM fluorescein probe, 1X TAE, 1 h, room temperature, 6% native PAGE in 1X TAE; SEC: 50 mM Tris-HCl pH 8, 200 mM NaCl, 5 mM beta-mercaptoethanol, 4 C. The note with it: protein: recombinant; tags: Trx-His6 tag removed by TEV; residual Gly at N-terminus; chain copies: 4; blunt.

Data set [5] concerns the target T1, MAB_4384 (TetR regulator). Nature of the data set: EMSA; comparable to Probe 1; EMSA: 280 nM fluorescein probe, 1X TAE, 1 h, room temperature, 6% native PAGE in 1X TAE; SEC: 50 mM Tris-HCl pH 8, 200 mM NaCl, 5 mM beta-mercaptoethanol, 4 C. Particulars: protein: recombinant; tags: Trx-His6 tag removed by TEV; residual Gly at N-terminus; chain copies: 4; label: 5' fluorescein; blunt.

B1: MAB_4384 TetR regulator (natural protein)
chain: T2 sequence with N14D, L57F
notes: MAB_4384, TetR family transcriptional repressor of Mycobacterium abscessus subsp. abscessus CIP104536T; amplified from genomic DNA with the MAB_4384_full primers; theoretical mass 24.7 kDa; the account of the structure (chain A modelled Asp14 to Thr213, first thirteen and last eight residues not visible) implies residues 1-221; also called wild-type MAB_4384; source: E. coli BL21 Rosetta 2 (DE3), …
Take B1: the “stoichiometry N” value in data set [1] came out at 2.

B2: Non-specific probe (dsDNA)
DNA 1: ATGGAACTTGAAGGACTGACCGCGTTG
DNA 2: CAACGCGGTCAGTCCTTCAAGTTCCAT
As for B2, the binding result in data set [2] is listed as “no binding”.

B3: Probe 1 (IRS5/L5 operator) (dsDNA)
DNA 1: CACTTCGCCATAAGTGGATTGACTCTATCCACTTTTACCCATAGA
DNA 2: TCTATGGGTAAAAGTGGATAGAGTCAATCCACTTATGGCGAAGTG
On to B3, for which the binding result in data set [3] is on record as “binds”; with MAB_4384 (D14N/F57L), “no binding”.

B4: Probe 1 unlabeled (dsDNA)
DNA 1: B3 DNA 1
DNA 2: B3 DNA 2
B4: in data set [4], the binding result is on record as “binds”.

B5: Probe 3 (flanks randomly changed) (dsDNA)
DNA 1: TCTGGATAAGCAAGTGGATTGACTCTATCCACTTCCGAAACCGAC
DNA 2: GTCGGTTTCGGAAGTGGATAGAGTCAATCCACTTGCTTATCCAGA
In the case of B5, in data set [5], the binding result is “binds”.

The values are drawn from publication PMC5895659, “Mechanistic and Structural Insights Into the Unique TetR-Dependent Regulation of a Drug Efflux Pump in Mycobacterium abscessus” (Frontiers in Microbiology, 2018).
